# Data taken from US20210317204A1.
# Residue numbers refer to the chain shown, from its start.
# B1: D3 ADV1 dimer (VNAR, part only; not given: Linker between the domains, not shown: small tags and cut ends)
# chain, part: ASVNQSPSSLSASVGDRVTITCVLTDTSYGLYSTSWFRKNPGTTDWERMSIGGRYSESVNKGAKSFTLTISSLQPEDSATYYCKAQSGMAISTGSGHGYNWYDGAGTKVEIKASVNQSPSSLSASVGDRVTITCVLTDTSYGLYSTSWFRKNPGTTDWERMSIGGRYSESVNKGAKSFTLTISSLQPEDSATYYCKAQSGMAISTGSGHGYNWYDGAGTKVEIKQASGAHHHHHHGAEFEQKLISEEDLG
# B2: D3 ADV2 dimer (VNAR, part only; not given: Linker between the domains, not shown: small tags and cut ends)
# chain, part: B1 chain, part with A1T, S2R, N4D, A113T, S114R, N116D
# Molecular target: human ROR1 extracellular domain-Fc fusion (human) (UniProt Q01973)
# Test: SPR, hROR1 ECD-Fc on chip
Binder,Kd [nM],koff [s⁻¹],kon [M⁻¹ s⁻¹]
B1,8.92,0.00567,636000
B2,26.2,0.016,609000
